According to the nanobody polyreactivity screen of Harvey et al. (2022):

Test: yeast display, Sf9 membrane polyspecificity reagent, FACS + sequencing; frameworks hold sequencing errors
Summary of the method: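 Using colony PCR, genes from sorted yeast display clones were amplified, then sequenced on MiSeq at 2 × 250 and filtered by CDR length. The clones had been stained with 10% biotinylated, detergent-solubilized Sf9 membrane reagent for 1 hour at 4 °C and sorted by FACS into low and high (top ~1%) gates on anti-HA and streptavidin fluorescence. Polyreactivity labels come from the gate of origin.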

Sequence	polyreactivity (PSR sort gate)
QVQLVESGGGLVQAGGSLRLTCAASGGIFVFYAMGWYRQAPGKERELVAAIRYGGSSTYYADSVKGRFTISRDNAKNTVYLQMNSLKPEDTAVYYCAAEPYSWDTWVDYDYWGQGTQVTVSS	low polyreactivity
QVQLVESGGGLVQAGGSLRLTCAASGIIFQNYAMGWYRQAPGKERELVAGITGRGGITYYTDSVKGRFTISRDNAKNTVYVQMNSLKPEDTAVSSCAARRYRFAGDYRMYYWGQGTQVTVSS	high polyreactivity
QVQLVESGGGLVQAGGSLRLTCAASGLIFGSNAMRWYRKAPGKERELVAGISGSGEHYVLRRSVKGRFTISRDNAKNTVYVQMNSLKPEDTAVYYCATYSQSSKGPAGYDYWGQGTHVTVSS	high polyreactivity
QVQLVESGGGLVQAGGSLRLTCAASGLIFPFYAMGWYRQATGKERELVAAISSRGGSTYYADSVKGRFTISRDNAKNTVYLQMSSLKPEDTAVYYCAADYGEEYEYSGQGTQVTVSS	high polyreactivity
QVQLVESGGGLVQAGGSLRLTCAASGNIFFVYDMGWYRQAPGKERELVAAISWSGGSTYADSVKGRFTISRDNAKNTVYLQMNSVKPEDTAVDYCAADVAYVEYDYWGQGTQVTVSS	low polyreactivity
QVQLVESGGGLVQAGGSLRLTCAASGNIFKVYAMGWSRQAPGKERELVAAITSGGGTKYADSVKGRFTISRDNAKNTVYLQMNSLKPEDTAVYYCAARFKYDVAKRYGYWGQGTQVTVSS	high polyreactivity
QVQLVESGGGLVQAGGSLRLTCAASGNIFRAYAMGWYRQAPGKERELVAAISWNAGTTYYADSVKGRFTISRDHAKNTVYLQMHSLKPEDTAVYYCAASKLLRRGLCKYYKATYSYDYWGQGTQVTVSS	high polyreactivity
QVQLVESGGGLVQAGGSLRLTCAASGNTFSLNPMGWYRQATGTETELVASSTWDGASTYADSVKGRFTISRDNAKNTVFLQMNSLKPEDTAVYFCAADTYRYGRFLKFDYWGQGTQVTVSS	low polyreactivity
QVQLVESGGGLVQAGGSLRLTCAASGNTFYGYSKGWYRQATGKERELVASISLSGDSTYYADSVKGRFTISRDNAKNTVYLQLNSLKPEDTAVYYCAGVYTYPLGYYHYTYDYWGQGTQVTVSS	low polyreactivity
QVQLVESGGGLVQAGGSLRLTCAASGRIFALYAMGWYRQAPGKERELVAAITSGSTYYADSVKGRFTISRDNAKNTVYLQMNSLKPEDTAVYYCAADANYYPTEYYPFDYWGQGTQVTVSS	low polyreactivity
QVQLVESGGGLVQAGGSLRLTCAASGRIFGAYTMGWYRQEPGKERELVAAISWSGGRTYYADSVKGRFTISRDNAKNTFYLQLNSLNAEDTAVYYCNVRRQSGRYRVYEYDYWGQGTQVTVSS	low polyreactivity
QVQLVESGGGLVQAGGSLRLTCAASGRIFNYYAMGWYRQAPGKEREFVAAITRSGGRTYYADSVKGRFTISRDNAKNTVYLQMNSLKPEDTAVYYCAAPYGTYAYDYWGQGTQVTVSS	high polyreactivity
QVQLVESGGGLVQAGGSLRLTCAASGRIFRPYTMGWYRQAPGKESELVARISISTGRTYYADSVKGRFTISRDNAKNTVYLQMNSLKPEDTAVYYCATRGYRWSVFDYWGQGTQVTVSS	high polyreactivity
QVQLVESGGGLVQAGGSLRLTCAASGRIFTGNSMGWYRQAPGQERELVAAITRRGGNTYYADSVKGRFTISRDNAKNTVYLQMNSLKPEDTAVYSCARDRPGDYAGYDYWGQGTQVTVSS	low polyreactivity
QVQLVESGGGLVQAGGSLRLTCAASGRIFTHNAMGWYRQAPGKVRELVAAITSGGRTTYADSVKGRFTISRDNAKNTVYLQMNSLKPEDSAVYDCNADTGLGSLDFDKRDYWGQGTQVTVSS	low polyreactivity
QVQLVESGGGLVQAGGSLRLTCAASGRIFWSYAMGWYRQAPGKERELVARITTGSSTNYADSVKGRFTISRDNAKNTVYLQMNSLKPEDTAVYYCAADVSNYYFAYYYWGQGTQVTVSS	low polyreactivity
QVQLVESGGGLVQAGGSLRLTCAASGRIFYRYAMGWYRQAPWKERELVAAIRYSGGRTYYADSVKGRFTISRDNAKNTVYLQMNSLQPEDTAVYYCAADGQWYYAPFRGGDYENDYWGQGTQVTVPS	low polyreactivity
QVQLVESGGGLVQAGGSLRLTCAASGRIIGFNAMGWYRQAPGKERELVASIRTTGGTTYYADSVKGRFTISSDNAKNTVYLQMNSLKPEDTAVYYCAARRYPPRMDYWGQGTQVTVSS	high polyreactivity
QVQLVESGGGLVQAGGSLRLTCAASGRTFRLYAMGWYRQAPGKERELVAAITRGGRTNYADSVKGRFTISRDNAKNTVYLQMNSLKPEDTAVYYCAARYVDRHTDYYYWGQGTQVTVSS	low polyreactivity
QVQLVESGGGLVQAGGSLRLTCAASGRTFVENAMGWYRPATGKERELVAAITYSGGGTYYADSVKGRFTISRDNAKNTVYLQMNSVKPEDTAVYDCAATIPYSLDGYDYWGQGTQVTVSS	low polyreactivity
QVQLVESGGGLVQAGGSLRLTCAASGRTFYWNVMGWYRQAPGKERELVAITTSGGSTYYADAVKGRFTISRDNAKNTVYLQMNSLKPEDTAVYYCAAQWRSYYDQYGYDYWGQGTQVTVSS	low polyreactivity

Sequence	polyreactivity (PSR sort gate)
QVQLVESGGGLVQAGGSLRLTCAASGRTLYRYAMGWYRQAPGKERELVAAITNGGSTKYADSVKGRFTISRDNAKNTVYLQMNSLKPEDTAVYYCYAVVNFILLRIYYGQLYNYWGQGTQVTVSS	low polyreactivity
QVQLVESGGGLVQAGGSLRLTCAASGSIFDRNAMGWYRQAPGTERELVAAITYRSGGTYYADSVKGRFTISRDNAKNTVYLQMNSLKPEDTSVYYCNKGYRRYKGYDYWGQGTQVTVSS	high polyreactivity
QVQLVESGGGLVQAGGSLRLTCAASGSIFEGNAMGWYRQAPGKESELVASISGDGSTNYADSVKGRFTISRDNAKNSVYLQMNSLKPEDTAVYYCNADTISEPGFHMDYWGQGNQVTVSS	low polyreactivity
QVQLVESGGGLVQAGGSLRLTCAASGSIFPGYAMGWYRQAPGKDRELVATITASGGSTYYADSVKGRFTISRDNAKNTVFLQMISLKPEDTAVYDCAKDRYWYFRRRGQYDYWGQGTQVTVSS	high polyreactivity
QVQLVESGGGLVQAGGSLRLTCAASGSIFQPNMGWNRHAPGKERELVASITTGTTKYADSVKGRFTISRDNAKNTVYLQMNSLKPEDTAVYYCAADLQATVYLIFGYWGQGTQVTVSS	low polyreactivity
QVQLVESGGGLVQAGGSLRLTCAASGSIFRVYAMGWYRQAPGKERELVAVISIAGRTNYADSVKGRFTISRDNAKNTVYLQMNSLKAEDTAVYYCNAGGVGVATGYDYWGQGTQVTVSS	low polyreactivity
QVQLVESGGGLVQAGGSLRLTCAASGSIFTFYAMGWYRQAPGKERELVADISFSDVSTYYADSVKGRFTISRDNAKNTVYLQMNSLKPEDTAVYYCAARPYVVSQYFDGVEFYYWGQGTQVTVSS	low polyreactivity
QVQLVESGGGLVQAGGSLRLTCAASGSIFVSYARGWYREAPGKERELVAAITSAGTPYYADSVKGRFTISRDNAKNTVYLQMNSLKPDDTAVYYCNTDASLKRTRVSPETEYGYWGQGTQVTVSS	low polyreactivity
QVQLVESGGGLVQAGGSLRLTCAASGSIFWYNAMGWYRQAPGKERELVAAIKWSGGSTFYADSVKGGFTISRDTAKNNVYLQMNSLKPEDTAVYYCNAPPLYRDEFWGQGTQVTVSS	high polyreactivity
QVQLVESGGGLVQAGGSLRLTCAASGSTFFYYAMVWYIHAPGKERELVAAITVRGTSTYYADSVKGRFTISRDIAKNTVYLQMNSLKPEDTAVYYCNTLQPYLYDYWGQGTQVTVSS	high polyreactivity
QVQLVESGGGLVQAGGSLRLTCAASGSTFGDYDMGWYRQAPGKERELVAAISNGGSTYYADSVKGRFTISRDNAKNTVYFQMNSLKPEDTAVYYCNADNVEIRSTYEYGRYLYGYWGQGTQVTVSS	low polyreactivity
QVQLVESGGGLVQAGGSLRLTCAASGSTFRKNVMGWYRQAPGKERELVARISNSGGSTNYADSVKGRFTISRDNAKITVYLQINSLKPADTAVYNCNARKYTNHATYDYWGQGTQVTVSS	high polyreactivity
QVQLVESGGGLVQAGGSLRLTCAASGSTFVINVMGWYRQAPGKERELVAAISNGGRTYADSVKGRFTISRDNAKNTVYLQMNSLKPEDTAVYYCAADVSFTQSDGRLAEYGYWGQGTQVTVSS	low polyreactivity
QVQLVESGGGLVQAGGSLRLTCAASGSTFWDNAMGWYRQAPGKERELVAAITAIGGTTYYADSVKGRFTISRDNAKNTVYLQMKSLKPEDTAVYYCAAVWSRFLISYSTGWWFEYWGQGTQVTVSS	low polyreactivity
QVQLVESGGGLVQAGGSLRLTCAASGSTFYHNAMGWYRQAPGKERELVAAITTSGGSTYYADSVKGRFTISRDNAKNTVYLQMNSLKPVDTAVYYCNVYRPYLAPYDYWGQGTQVTVSS	low polyreactivity
QVQLVESGGGLVQAGGSLRLTCAASGSTLDYYAMGWYRQAPGKERELVAAITQSGASTYYADSVKGRFTISRDNAKNPVYLQMNSLKPEDTAVYYCAAEDYTIYGGEYDYWGQGTQVTVSS	low polyreactivity
QVQLVESGGGLVQAGGSLRLTCAASGSTLKSYAMGWYRQAPGKERELVAAITRSGARTYYADSVQGRFTISRDNAKNTVYFQMNSLKPEDTAVYYCNRVGYQYGSDQEDDYWGQGTQVTVSS	high polyreactivity
QVQLVESGGGLVQAGGSLRLTCAASGSTLRYYAMGWYRQAPGKERELVAAISTGGSTYYADSVKGRFTISRDNAKITVYLQINSLKPEDTAVYYCAAEKKTKTYRYDYWGQGTQVTVSS	low polyreactivity
QVQLVESGGGLVQAGGSLRLTCAASGYTFLHYAMGWYRQPPGKERELVAAITHSGTRTYYADSVKGRFTISRDNAKNTVYLQMNSLKPEDTAVHYCAARGYGKYDYWGQGTQVTVSS	high polyreactivity
QVQLVESGGGLVQAGGSLRLTCAASGYTLGYNAMGWYRKAPGKEMELVAAITIDGSTTYADSVKGRFTISRDNAKNTVYLLMNSLKPEDTAVYYCNAEGFTSDPYDSDYWGKGTQVTVSS	low polyreactivity
